Laboratory results as given in patent US20140248273A1 (published 2014).

Target: His-tagged SSL3 (S. aureus strain NCTC 8325), with the pRSETB N-terminal tag carrying the Xpress epitope (Staphylococcus aureus strain NCTC 8325, UniProt Q2G0X7 31-356)
Test: ELISA, coated extracellular domain of mouse TLR2 (FIG. 5A)

B1: recombinant extracellular domain of mouse TLR2 (receptor)
chain: QESLSCDASGVCDGRSRSFTSIPSGLTAAMKSLDLSFNKITYIGHGDLRACANLQVLILKSSRINTIEGDAFYSLGSLEHLDLSDNHLSSLSSSWFGPLSSLKYLNLMGNPYQTLGVTSLFPNLTNLQTLRIGNVETFSEIRRIDFAGLTSLNELEIKALSLRNYQSQSLKSIRDIHHLTLHLSESAFLLEIFADILSSVRYLELRDTNLARFQFSPLPVDEVSSPMKKLAFRGSVLTDESFNELLKLLRYILELSEVEFDDCTLNGLGDFNPSESDVVSELGKVETVTIRRLHIPQFYLFYDLSTVYSLLEKVKRITVENSKVFLVPCSFSQHLKSLEFLDLSENLMVEEYLKNSACKGAWPSLQTLVLSQNHLRSMQKTGEILLTLKNLTSLDISRNTFHPMPDSCQWPEKMRFLNLSSTGIRVVKTCIPQTLEVLDVSNNNLDSFSLFLPRLQELYISRNKLKTLPDASLFPVLLVMKIRENAVSTFSKDQLGSFPKLETLEAGDNHFVCSCELLSFTMETPALAQILVDWPDSYLCDSPPRLHGHRLQDARPSVLECHQ
notes: extracellular domain; also called mTLR2
binding result: binds
